Test results reported in US20180179500.
Changes are numbered by the printed parent chain. In names and notes the source's numbering stands.

B1: T4 Dda-F98W/E94C/C109A/C136A/K194L/A360C (protein)
chain: GTFDDLTEGQKNAFNIVMKAIKEKKHHVTINGPAGTGKTTLTKFIIEALISTGETGIILAAPTHAAKKILSKLSGKEASTIHSILKINPVTYECNVLWEQKEVPDLAKARVLICDEVSMYDRKLFKILLSTIPPWATIIGIGDNKQIRPVDPGENTAYISPFFTHKDFYQCELTEVKRSNAPIIDVATDVRNGLWIYDKVVDGHGVRGFTGDTALRDFMVNYFSIVKSLDDLFENRVMAFTNKSVDKLNSIIRKKIFETDKDFIVGEIIVMQEPLFKTYKIDGKPVSEIIFNNGQLVRIIEAEYTSTFVKARGVPGEYLIRHWDLTVETYGDDEYYREKIKIISSDEELYKFNLFLGKTCETYKNWNKGGKAPWSDFWDAKSQFSKVKALPASTFHKAQGMSVDRAFIYTPCIHYADVELAQQLLYVGVTRGRYDVFYV
B2: T4 Dda-E94C/F98W/C109A/C136A/K199L/A360C (protein)
chain: B1 chain with L194K, K199L

Molecular target: MspA-((Del-L74/G75/D118/L119)D56F/E59R/L88N/D90N/D91N/Q126R/D134R/E139K)8

Protein | % complement bases missed through slipping [%] | Average slip length | Number complement slips per 3.6 kb (slips per 3.6 kb) | Number complement slips per kb [slips per kb] | Total length of complement slips
B1 | 1.9 | 23.3 | 3 | 0.8 | 70
B2 | 3.6 | 21.5 | 6 | 1.7 | 129
